# Measurements reported in paper PMC11401227, “The structure of DNA methyltransferase DNMT3C reveals an activity-tuning mechanism for DNA methylation” (The Journal of Biological Chemistry, 2024).
# B1: mouse DNMT3C MTase domain (residues 456–740) (domain or fragment, UniProt P0DOY1 456-740, looked up)
# chain: AAKRRPIRVLSLFDGIATGYLVLKELGIKVEKYIASEVCAESIAVGTVKHEGQIKYVDDIRNITKEHIDEWGPFDLVIGGSPCNDLSCVNPVRKGLFEGTGRLFFEFYRLLNYSCPEEEDDRPFFWMFENVVAMEVGDKRDISRFLECNPVMIDAIKVSAAHRARYFWGNLPGMNRPVMASKNDKLELQDCLEFSRTAKLKKVQTITTKSNSIRQGKNQLFPVVMNGKDDVLWCTELERIFGFPEHYTDVSNMGRGARQKLLGRSWSVPVIRHLFAPLKDHFACE
# notes: DNA methyltransferase DNMT3C, mouse, MTase domain, residues 456-740; synthetic DNA fragment; The His6-SUMO tag was still on the chain in the Ni-NTA co-purification step and was removed by ULP1 afterwards; also called DNMT3C methyltransferase domain; WT DNMT3C; source: E. coli BL21 (DE3) RIL, co-expressed with DNMT3L, purified (Ni-NTA, Heparin, SEC); not shown: His6-SUMO, N-terminal, cleaved
# Molecular target: the molecule itself
# Assay: crystal structure; DNMT3C MTase domain-hDNMT3L C-terminal domain covalently bound to a 25-mer ZpG/CpG DNA, with SAH; 3.2 Å; crystals grown at 4 °C
protein,measurement,value
B1,binding result,binds
